From US10619138B2, “Herbicide-resistant hydroxyphenylpyruvate dioxygenases” (BASF SE, priority 2013, dated 2020)

Substrate: O=C(O)C(=O)Cc1ccc(O)cc1
Experiment: purified protein, by the assay type
Conditions: other: pH 7.0, apparent, substrate inhibition model, 20.0 °C

B1: Arabidopsis thaliana HPPD, wild type, SEQ ID NO: 42 (Arabidopsis thaliana) (protein)
chain: MGHQNAAVSENQNHDDGAASSPGFKLVGFSKFVRKNPKSDKFKVKRFHHIEFWCGDATNVARRFSWGLGMRFSAKSDLSTGNMVHASYLLTSGDLRFLFTAPYSPSLSAGEIKPTTTASIPSFDHGSCRSFFSSHGLGVRAVAIEVEDAESAFSISVANGAIPSSPPIVLNEAVTIAEVKLYGDVVLRYVSYKAEDTEKSEFLPGFERVEDASSFPLDYGIRRLDHAVGNVPELGPALTYVAGFTGFHQFAEFTADDVGTAESGLNSAVLASNDEMVLLPINEPVHGTKRKSQIQTYLEHNEGAGLQHLALMSEDIFRTLREMRKRSSIGGFDFMPSPPPTYYQNLKKRVGDVLSDDQIKECEELGILVDRDDQGTLLQIFTKPLGDRPTIFIEIIQRVGCMMKDEEGKAYQSGGCGGFGKGNFSELFKSIEEYEKTLEAKQLVG
Protein B1 has a Km of 13 µM, a kcat of 12.9 s⁻¹ and a kcat/Km of 1e+06 M⁻¹ s⁻¹.
